What was measured:
iPS cells = assay: Example 6: evaluation of undifferentiated state maintainability (10 passages); type: cell-based, human; conditions: for shape of iPS cells after 10 passages: Essential 8 and NutriStem not containing 2-mercaptoethanol, FIGS. 8A to 8D
Method: iPS cells were seeded onto cell culture surfaces coated with RCP-11 and RCP-5 and cultured in Essential 8. Every five to seven days after seeding, cell culture surfaces coated with RCP-11 and RCP-5 were newly prepared. The iPS cells were treated with TryPLE Select, separated into a single cell, and then collected. Thereafter, the iPS cells were subcultured by being seeded onto the newly prepared cell culture surfaces coated with RCP-11 and RCP-5. Under the conditions described above, the cells were cultured for 10 passages.
The iPS cells cultured for 10 passages on the RCP-11-coated surface were immobilized using 4 v/v % paraformaldehyde, and the membrane permeability was enhanced by using 1% by mass of Triton-X/PBS. After the cells were subjected to a blocking treatment using an Image IT Signal Enhancer (Invitrogen), an anti-NANOG antibody (AF 1997, R&D Systems, Inc.), an anti-OCT 3/4 antibody, an anti-SSEA-3 antibody, an anti-S SEA-4 antibody, a anti-Tra-1-60 antibody, and an anti-Tra-1-81 antibody (Stemcell Technologies Inc), an Alexa Fluor 555 binding rabbit anti-goat IgG antibody (Invitrogen), an FITC binding goat anti-mouse IgM antibody (Stemcell Technologies Inc), and DAPI (Dojindo Molecular Technologies, Inc.) were added thereto for labeling, and the cells were imaged using a fluorescence microscope.
In FIGS. 8A to 8D, the images on the left side are full images of the colony, and the images on the right side are magnified images. The scale bar in FIGS. 8A to 8D indicates 500 μm.
In FIGS. 9A to 9F, each of the images of stained cells is an image of stained iPS cells cultured on the RCP-11-coated surface by using Essential 8. The images on the left side are images of the cells stained with DAPI, and the images on the right side are images of the cells stained with NANOG (FIG. 9A), OCT 3/4 (FIG. 9B), SSEA-3 (FIG. 9C), SSEA-4 (FIG. 9D), Tra-1-60 (FIG. 9E), and Tra-1-81 (FIG. 9F). The scale bar in FIGS. 9A to 9F indicates […].

human iPS cells ("Tic") = assay: Cell growth property evaluation 1 (different media); type: cell-based; conditions: for cell growth properties with Essential 8 or NutriStem not containing 2-mercaptoethanol versus media containing it: Table 11; for Cell growth rate: polypeptide 100 μg/ml, 72 hours, RCP-11 with Essential 8 = 100%, n=3
Method: Furthermore, for evaluation, human iPS cells (“Tic”) that were retention-cultured as described in <Cell adhesiveness evaluation 1> of reference example were treated with TrypLE Select (Invitrogen) for 5 minutes at 37° C. and separated into a single cell. After being subjected to centrifugation for 2 minutes at 300 rpm, the cells were collected, suspended in each medium, and used for the evaluation in each example. Herein, Y-27362 ((R)-(+)-trans-N-(4-pyridyl)-4-(1-aminoethyl)-cyclohexane carboxamide.2HCl.H2O, an Rho binding kinase inhibitor, Wako Pure Chemical Industries, Ltd.) was added to all of the media at a final concentration of 10 μM.
Each of RCP-11, RCP-5, and recombinant laminin (Human Recombinant Laminin-511: BIOLAMINA AB) as control was added to and suspended in a predetermined buffer (a dialysis buffer used in <GRAVY value and aggregation characteristics> of reference examples for RCP-11 and RCP-5, and PBS for the recombinant laminin) at the final concentration shown in Table 11, thereby preparing polypeptide solutions. The polypeptide solutions were added to the respective wells of a plasma-treated 96-well plate made of polystyrene (BD Falcon) having a plasma-treated cell culture surface and held as they were so as to be adsorbed onto the plate for 2 hours at 37° C. In this way, a peptide-treated 96-well plate having a polypeptide-coated surface was obtained. The iPS cells suspended in the respective media shown in Table 11 were seeded into the respective wells of the obtained peptide-treated 96-well plate at a cell density of 10,000 cells/well. After the cells were cultured for 72 hours, nonadhesive cells were washed off with PBS, and only adhesive cells were immobilized using 4% by mass of paraformaldehyde (Wako Pure Chemical Industries, Ltd.). By using an Attophos (registered trademark) AP Fluorescent Substrate System (Promega Corporation), the ALP activity was calculated, and from the calibration curve, the number of undifferentiated iPS cells having the ALP activity was calculated. In Table 11, the cell adhesion rate is expressed as a ratio calculated by regarding the number of pluripotent stem cells after the culture for 72 hours in a combination of RCP-11 and Essential 8 as being 100%. n=3.
In Table 11, “% by mass” in the concentration of 2-meracptoethanol is a proportion (w/v %) of mass (g) of 2-meracptoethanol per 100 mL of the total volume of the medium at the time of culture.

[1] = Evaluation 1 about amount of residual polypeptide adsorbed (ELISA, media); type: physicochemical; conditions: for Residual rate of polypeptide (%): four days after the starting of culture, amount adsorbed immediately after start = 100, coated at 100 μg/ml; for residual rate of adsorbed polypeptide, medium not containing versus containing 2-mercaptoethanol: FIGS. 5 and 6 and Table 13
Method: RCP-11 and RCP-5 were prepared by using a predetermined buffer (the dialysis buffer used in <GRAVY value and aggregation characteristics> of reference examples) such that their concentration became 100 μg/ml. The polypeptides were added to the respective wells of a plasma-treated 96-well plate made of polystyrene having a plasma-treated cell culture surface and held as they were for 2 hours at 37° C. so as to be adsorbed onto the plate, thereby obtaining a polypeptide-coated surface. After the wells were washed with PBS, the respective media were added thereto, followed by incubation at 37° C. for a predetermined time. The wells were washed with PBS, and then 20% by mass of an immunoblocking solution (DS Pharma Biomedical Co., Ltd.) was added thereto, followed by incubation for 30 minutes at 37° C., thereby performing a blocking treatment. After the wells were washed with PBS-T (PBS containing 0.05% by mass of Tween-20), 5% by mass of an immunoblocking solution (DS Pharma Biomedical Co., Ltd.) containing an anti-human vitronectin antibody (Thermo Fisher Scientific Inc.) was added thereto, followed by incubation for 2 hours at room temperature. After the wells were washed with PBS-T, a 5% by mass of immunoblocking solution (DS Pharma Biomedical Co., Ltd.) containing an HRP-labeled anti-IgG antibody (Thermo Fisher Scientific Inc.) was added thereto, followed by incubation for 1 hour at room temperature. After the wells were washed with PBS-T, a TMB Substrate (Wako Pure Chemical Industries, Ltd.) was added thereto for developing color, and then 1 N hydrochloric acid was added thereto to stop the color reaction. By using a plate reader, the absorbance was measured, and the amount of the residual RCP-11 and RCP-5 was determined (absorption wavelength: 450 nm, control wavelength: 650 nm).
In Table 13, the residual rate of RCP-11 and RCP-5 is expressed as a ratio (%) calculated by regarding the amount of the polypeptides adsorbed immediately after the starting of culture as being 100.

[2] = medium Essential8, 2-mercaptoethanol 0, 10,000 cells/well
[3] = medium NutriStem, 2-mercaptoethanol 0
[4] = medium ReproFF2, 2-mercaptoethanol 102.4 μM (0.0008% by mass)
[5] = medium StemPro hESC SFM, 2-mercaptoethanol 100 μM (0.00078% by mass)
[6] = medium TeSR2, 2-mercaptoethanol 48.6 μM (0.00038% by mass)

Row | Molecule | expression of markers specific to undifferentiated cells (iPS cells; Essential 8, 10 passages, immunostaining, FIGS. 9A to 9F) | shape of iPS cells after 10 passages (iPS cells) | cell growth properties with Essential 8 or NutriStem not containing 2-mercaptoethanol versus media containing it (human iPS cells ("Tic")) | Cell growth rate (human iPS cells ("Tic"); [2]) | Cell growth rate (human iPS cells ("Tic"); [3]) | Cell growth rate (human iPS cells ("Tic"); [4]) | Cell growth rate (human iPS cells ("Tic"); [5]) | Cell growth rate (human iPS cells ("Tic"); [6]) | Residual rate of polypeptide (%) ([1]; Essential8) | residual rate of adsorbed polypeptide, medium not containing versus containing 2-mercaptoethanol [1] | Residual rate of polypeptide (%) ([1]; NutriStem) | Residual rate of polypeptide (%) ([1]; ReproFF2) | Residual rate of polypeptide (%) ([1]; Stempro hESC SFM) | Residual rate of polypeptide (%) ([1]; TeSR2)
1 | RCP-11: recombinant polypeptide for culture, SEQ ID NO: 25; vitronectin positions 1-55, 269-277, 295-341, 342-373, C274S (protein, Vitronectin-derived Recombinant Protein (RCP-11), vitronectin positions 1-55, 269-277, 295-341, 342-373, C274S) MDQESCKGRCTEGFNVDKKCQCDELCSYYQSCCTDYTAECKPQVTRGDVFTMPEDESQEESEGSEDIFELLFWGRTSAGTRQPQFISRDWHGVPGQVDAAMAGRIYISGMAPRPSLAKKQRFRHRNRKGYRSQRGHSRGRNQN | expressed NANOG, OCT 3/4, SSEA-3, SSEA-4, Tra-1-60, and Tra-1-81 | shape specific to undifferentiated cells | better | 100% | 129.1% | 84.7% | 13.6% | 71.8% | 71.8% | decreases further with the passage of time | 63.5% | 42.0% | 29.4% | 49.9%
2 | RCP-5: recombinant polypeptide for culture, SEQ ID NO: 19; vitronectin positions 1-55, 302-341, 342-373 (protein, Vitronectin-derived Recombinant Protein (RCP-5)) MDQESCKGRCTEGFNVDKKCQCDELCSYYQSCCTDYTAECKPQVTRGDVFTMPEDEFWGRTSAGTRQPQFISRDWHGVPGQVDAAMAGRIYISGMAPRPSLAKKQRFRHRNRKGYRSQRGHSRGRNQN | – | shape specific to undifferentiated cells | better | 84.4% | 123% | 70.3% | 20.1% | 54.4% | 65.6% | decreases further with the passage of time | 62.5% | 42.1% | 35.3% | 44.0%

Reference: US10487307B2, “Culture method for pluripotent stem cells” (FUJIFILM CORPORATION, priority 2013, dated 2019)
